# According to patent US9529005B2, “Modulating bacterial MAM polypeptides in pathogenic disease” (priority 2011, dated 2016):
# Read-outs that look alike come from different tables or passages of the source.
# B1: mce 6: GST-tagged individual mce domain 6 of V. parahaemolyticus MAM7 (SEQ ID NO: 10) (protein, listed as Vibrio parahaemolyticus)
# chain: FGRVISLETDGTQEVLKGMPIEYQGVKVGEVTLVVPNFRRNLVEVTARILPEYVENIAVEGTHFWLTEPEIGLGGVKNLGALVSKSISVEPG
# modifications: GST tag
# B2: mce 7: GST-tagged individual mce domain 7 of V. parahaemolyticus MAM7 (SEQ ID NO: 11) (protein, listed as Vibrio parahaemolyticus)
# chain: EGVMFTLQSEQRGSVQVGTPVLYRQMEVGQVTDVRLGEFADRVVSTIKIKPEYAYLVRQNSVFWNVSGVDVSIGITGANIKAGTIDSLVRG
# modifications: GST tag
# B3: MAM7: recombinant MBP-tagged V. parahaemolyticus multivalent adhesion molecule with seven mce domains in tandem (SEQ ID NO:1) (protein, listed as Vibrio parahaemolyticus)
# chain: MSDQNNSQTSYVPDVKRSKGISPLWLLPILTMVLAGWLVVKSIHDAGQRVQIYFSDAAGLVAGRTTIRYQGLEVGMVRDINLSEDLGSIYVDADIYPEATKLLNDKTRFWLVKPTASLTGVSGLDALVSGNYISIQPGDGQEFETTFHALDSAPTDLRVSQGLNIKLKSRDLGGVSIGSQIVYKKIPIGAVYSYQLDEDAKSITIQANIQEQYRHIINDRSRFWNVSGIGASIGFEGVDVRLESMSALLGGAIAVDSPDDGEPVEENTEFRLYKDLKTAGRGIAIKIALPDDNKVSSEGAPIMYRGIEIGQVTDLSLSEGREVILASAAIQPAFSDMLTTGTRFVLEEAKVSLSGVENIANLVRGNFLTIVPGDGERSRRFTAIRKNVFNQQQEKSIAIRLISDNSFGLDSGANVLYKGIVVGSIINVGLVDEKKQTKHEVFMDVLIDHEYKHLIKSNNRFYVTGSASAELTESGLSVTVPPAKQLLTGSISFVSEGSESIQKEYQLFQNESLAELAQYNKTGSKTLMLFASELPPISKGSPLLYRNLPVGNVSDFHLVDGGVLIKATIENRFAYLVTPQTVFWNRSGIEIDASLSGVSVKAHPLKSLIEGGIAFDSVPGVENKVGERWKLYADQQKARKFGRVISLETDGTQEVLKGMPIEYQGVKVGEVTLVVPNFRRNLVEVTARILPEYVENIAVEGTHFWLTEPEIGLGGVKNLGALVSKSISVEPGNGKAKFDFQLEKGFDRVEGVMFTLQSEQRGSVQVGTPVLYRQMEVGQVTDVRLGEFADRVVSTIKIKPEYAYLVRQNSVFWNVSGVDVSIGITGANIKAGTIDSLVRGGIAFSTPEQSQIPPAAKRGHSFYLYPRADESWVQWRTPIPKP
# modifications: MBP tag
# Key:
# HeLa cells [1] = format: cell-based; settings: 500 μM heparin from intestinal mucosa
# [2] = Pull-down of liposomes (50 mol % PA, 50 mol % PC) on immobilized GST-mce domains; format: binding; settings: 50 mol % PA and 50 mol % PC, molybdophosphoric acid assay
# Protocol: Liposomes in load, flowthrough and eluate fractions were quantified using the method of Worth an Wright (1977). Briefly, samples were extracted with a mixture of chloroform and methanol, centrifuged and molybdophosphoric acid (Sigma) was added to the organic phase. Samples were centrifuged and the aqueous phase removed. Metol and sodium bisulfate were added to reduce the organic phase and the aqueous phase was removed again following centrifugation. The amount of phospholipid was determined by measuring absorbance at 680 nm and expressed as fraction of the amount detected in loaded fractions.
# Although the inventors had previously shown that MAM1 is sufficient to bind to phosphatidic acid, it was unclear how the other mce domains contributed to phosphatidic acid binding in the absence of fibronectin. The inventors tested all seven individual mce domains (mce1-mce7) for phosphatidic acid binding using liposome association assays. Proteins were incubated with liposomes containing a mixture of PC and increasing amounts (1-80 mol %) of PA, followed by separation of liposome-bound and un-bound fractions by ultracentrifugation. All fractions were analyzed by SDS-PAGE (data not shown) followed by densitometry (FIG. 18A). […] When the inventors analyzed the mce domains of MAM7 for overall charge, they found only minor differences between individual domains. When they looked at charge distribution, however, the inventors observed that several basic residues that are otherwise well conserved between individual domains are mutated in mce 6. These include two residues which are lysines in mce 2, the strongest binding mce domain, but a serine and glutamine in mce 6, respectively, and a well conserved arginine which is replaced by a histidine in mce 6 (FIG. 18D). […]. (FIG. 18B and data not shown). […] GST-mce proteins were immobilized and incubated with liposomes. Bound liposomes were quantified using a molybdophosphoric acid assay. […]
# [3] = Liposome association assay; format: binding; settings: for decrease of binding to PA-containing liposomes (apparent affinity): individual GST-mce domains, 1-80 mol % PA, densitometry, relative to high binding mce domains
# Protocol: PBS-buffered liposomes were prepared from 1,2-Dioleoyl-sn-glycero-3-phosphocholine (PC) or mixtures of PC and 1,2-dioleoyl-sn-glycero-3-phosphate (PA) (both Avanti Polar Lipids Inc.) as described previously (Selyunin et al., 2011), but using PBS as buffer. 300 μg liposomes were incubated with 100 μg MBP-MAM protein in PBS for one hour at 22° C. Mixtures were centrifuged at 100 000×g, 4° C. for one hour and both pellet and supernatant fractions were separated by SDS-PAGE and proteins were detected by Coomassie staining.
# Binding of GST and GST-mce constructs to liposomes were carried out as described in the literature (Krachler et al., 2011). 300 μg liposomes containing PC alone or 1-80 mol % PA were incubated with 100 μg GST and GST-mce proteins in PBS for one hour at 22° C. Mixtures were centrifuged at 100,000×g, 4° C. for one hour and both pellet and supernatant fractions were separated by SDS-PAGE and proteins detected by Coomassie staining Band intensities were determined using the gel analysis software UN-SCAN-IT (Silk Scientific Inc.) and intensities of pellet samples (% bound) were expressed as fraction of total intensities (supernatant and pellet samples combined).
# HeLa cells [4] = assay: Fluorescence attachment assay: saturation binding of labeled MBP-MAM proteins to HeLa cells
# trypsinized cells = assay: Fluorescence attachment assay of labeled MAM7 on trypsinized cells; format: binding; settings: cells treated with trypsin
# Protocol: HeLa cells were cultured in sterilized Corning costar 96 well plates (15 000 cells/well) for 16 hours prior to experiments. ALEXAFLUOR®-labeled (fluorescent dye) proteins were diluted into PBS to give final concentrations of 0.1-100 μM and incubated with cells washed with PBS for 1 hour at 37° C. Initial fluorescence and fluorescence output were measured on a plate reader (λexcitation 485 nm, λemission 520 nm) prior to and following three washes with PBS, respectively. Data was expressed as % bound fluorescence and corrected for values determined for MBP alone. Levels of bound protein were blotted as a function of protein concentration and data were fit to a single-site binding model using Sigma Plot. For fluorescence attachment assays on trypsinized cells, cells were detached from the culture dish by trypsinization, which was stopped by adding DMEM after 5 minutes. Cells were adjusted to 600,000/ml in PBS and incubated with 100 μM labeled MBP-MAM7 or MBP in PBS for 30 minutes at 37° C. Fluorescence of the cell suspension was measured before and after extensive washing with PBS as described above.
# Attachment assays with live bacteria or purified labeled protein were carried out as described (Krachler et al., 2011). […]
# Lipid overlay assay = format: binding; settings: MBP-MAM proteins
# Protocol: Pre-spotted PIPstrips™ (Echelon Biosciences Inc.) were incubated in T-TBS containing 5% dry milk powder for one hour at 22° C. MBP-MAM proteins were diluted into blocking buffer to give a final concentration of 10 μM and incubated with the PIP strip for one hour at 22° C. Strips were washed with T-TBS three times for 10 minutes each and incubated with His antibody (QIAGEN) diluted 1:1000 into blocking buffer at 22° C. for one hour. Strips were washed three times with T-TBS and incubated with anti-mouse HRP-conjugated secondary antibody (GE Healthcare) diluted 1:5000 into blocking buffer for 1 hour at 22° C. After three more washes, bound proteins were detected using the ECL plus detection system (GE Healthcare).
# V. parahaemolyticus POR1 = assay: BL21 expressing MAM constructs blocking POR1 attachment and POR1-mediated cytotoxicity; settings: construct expressed on E. coli BL21, identical multiplicity of infection
molecule,measurement,setting,value
heparin,BL21-MAM7 remaining attached,HeLa cells [1],~40%
B1,binding of liposomes to immobilized GST-mce proteins,[2],weaker binding
same,decrease of binding to PA-containing liposomes (apparent affinity),[3],more than 100 fold
B2,binding of liposomes to immobilized GST-mce proteins,[2],strong binding
same,decrease of binding to PA-containing liposomes (apparent affinity),[3],~20 fold
B3,Kd,"HeLa cells [4]; intact host cells, read-out: apparent KD for intact cells",200 nM
same,Kd,"HeLa cells [4]; saturation binding, ALEXAFLUOR-labeled MBP-MAM proteins, cultivated HeLa cells, read-out: Equilibrium dissociation constants (KD values)",200 ± 100 nM
same,reduction of the number of MAM7 molecules on cells,trypsinized cells,over 100 fold
same,binding to PA in lipid overlay assay,Lipid overlay assay,bound to PA
same,PA content of liposomes at which binding was seen,"[3]; MBP-MAM proteins, PC/PA liposomes",1 mol %
same,effect on attachment of POR1 and pathogen-mediated cytotoxicity,V. parahaemolyticus POR1,significantly decreased
